Results published in patent US20220119490A1 (Genentech, published 2022).

B1: PVR (receptor, human, UniProt P15151 21-343, looked up)
soluble query ectodomain: WPPPGTGDVVVQAPTQVPGFLGDSVTLPCYLQVPNMEVTHVSQLTWARHGESGSMAVFHQTQGPSYSESKRLEFVAARLGAELRNASLRMFGLRVEDEGNYTCLFVTFPQGSRSVDIWLRVLAKPQNTAEVQKVQLTGEPVPMARCVSTGGRPPAQITWHSDLGGMPNTSQVPGFLSGTVTVTSLWILVPSSQVDGKNVTCKVEHESFEKPQLLTVNLTVYYPPEVSISGYDNNWYLGQNEATLTCDARSNPEPTGYNWSTTMGPLPPFAVAQGAQLLIRPVDKPINTTLICNVTNALGARQAELTVQVKEGPPSEHSGISRN
modifications: biotinylated
notes: extracellular domain; also called poliovirus receptor; monomeric or tetrameric PVR ectodomain
B2: CD226 (receptor, human, UniProt Q15762 19-336, looked up)
cell-surface-expressed binding partner: EEVLWHTSVPFAENMSLECVYPSMGILTQVEWFKIGTQQDSIAIFSPTHGMVIRKPYAERVYFLNSTMASNNMTLFFRNASEDDVGYYSCSLYTYPQGTWQKVIQVVQSDSFEAAVPSNSHIVSEPGKNVTLTCQPQMTWPVQAVRWEKIQPRQIDLLTYCNLVHGRNFTSKFPRQIVSNCSHGRWSVIVIPDVTVSDSGLYRCYLQASAGENETFVMRLTVAEGKTDNQYTLFVAGGTVLLLLFVISITTIIVIFLNRRRRRERRDLFTESWDTQKAPNNYRSPISTSQPTNQSMDDTREDIYVNYPTFSRRPKTRV
notes: expressed on cells; also called CD226 expressed on cells
B3: TIGIT (receptor, human, UniProt Q495A1 22-244, looked up)
cell-surface-expressed binding partner: MMTGTIETTGNISAEKGGSIILQCHLSSTTAQVTQVNWEQQDQLLAICNADLGWHISPSFKDRVAPGPGLGLTLQSLTVNDTGEYFCIYHTYPDGTYTGRIFLEVLESSVAEHGARFQIPLLGAMAATLVVICTAVIVVVALTRKKKALRIHSVEGDLRRKSAGQEEWSPSAPSPPGSCVQAEAAPAGLCGEQRGEDCAELHDYFNVLSYRSLGNCSFFTETG
notes: expressed on cells; also called TIGIT expressed on cells
B4: SLITRK3 extracellular domain (receptor, human, UniProt O94933 29-654, looked up)
chain: TPIPLIEDSEEIDEPCFDPCYCEVKESLFHIHCDSKGFTNISQITEFWSRPFKLYLQRNSMRKLYTNSFLHLNNAVSINLGNNALQDIQTGAFNGLKILKRLYLHENKLDVFRNDTFLGLESLEYLQADYNVIKRIESGAFRNLSKLRVLILNDNLIPMLPTNLFKAVSLTHLDLRGNRLKVLFYRGMLDHIGRSLMELQLEENPWNCTCEIVQLKSWLERIPYTALVGDITCETPFHFHGKDLREIRKTELCPLLSDSEVEASLGIPHSSSSKENAWPTKPSSMLSSVHFTASSVEYKSSNKQPKPTKQPRTPRPPSTSQALYPGPNQPPIAPYQTRPPIPIICPTGCTCNLHINDLGLTVNCKERGFNNISELLPRPLNAKKLYLSSNLIQKIYRSDFWNFSSLDLLHLGNNRISYVQDGAFINLPNLKSLFLNGNDIEKLTPGMFRGLQSLHYLYFEFNVIREIQPAAFSLMPNLKLLFLNNNLLRTLPTDAFAGTSLARLNLRKNYFLYLPVAGVLEHLNAIVQIDLNENPWDCTCDLVPFKQWIETISSVSVVGDVLCRSPENLTHRDVRTIELEVLCPEMLHVAPAGESPAQPGDSHLIGAPTSASPYEFSPPGGPVPLS
notes: extracellular domain; Streptavidin tetramer in cell assay; ECD-Fc prey in the variant screen
B5: BTN3A1 extracellular domain (receptor)
chain: not shown
notes: extracellular domain; Soluble query, streptavidin tetramer
B6: BTN3A3 extracellular domain (receptor)
chain: not shown
notes: as for B5
B7: FLRT2 (receptor, human, UniProt O43155 36-541, looked up)
soluble query ectodomain: CPSVCRCDRNFVYCNERSLTSVPLGIPEGVTVLYLHNNQINNAGFPAELHNVQSVHTVYLYGNQLDEFPMNLPKNVRVLHLQENNIQTISRAALAQLLKLEELHLDDNSISTVGVEDGAFREAISLKLLFLSKNHLSSVPVGLPVDLQELRVDENRIAVISDMAFQNLTSLERLIVDGNLLTNKGIAEGTFSHLTKLKEFSIVRNSLSHPPPDLPGTHLIRLYLQDNQINHIPLTAFSNLRKLERLDISNNQLRMLTQGVFDNLSNLKQLTARNNPWFCDCSIKWVTEWLKYIPSSLNVRGFMCQGPEQVRGMAVRELNMNLLSCPTTTPGLPLFTPAPSTASPTTQPPTLSIPNPSRSYTPPTPTTSKLPTIPDWDGRERVTPPISERIQLSIHFVNDTSIQVSWLSLFTVMAYKLTWVKMGHSLVGGIVQERIVSGEKQHLSLVNLEPRSTYRICLVPLDAFNYRAVEDTICSEATTHASYLNNGSNTASSHEQTTSHSMGSPF
modifications: biotinylated
notes: extracellular domain; also called soluble query
B8: EDAR extracellular domain (receptor, human, UniProt Q9UNE0 27-187, looked up)
chain: EYSNCGENEYYNQTTGLCQECPPCGPGEEPYLSCGYGTKDEDYGCVPCPAEKFSKGGYQICRRHKDCEGFFRATVLTPGDMENDAECGPCLPGYYMLENRPRNIYGMVCYSCLLAPPNTKECVGATSGASANFPGTSGSSTLSPFQHAHKELSGQGHLATA
notes: as for B5
B9: LILRA5 extracellular domain (receptor)
chain: not shown
notes: as for B5

What was measured:
CD96 = target: T1, CD96 (human, UniProt P40200); experiment: cell surface binding of monomeric or streptavidin-tetramerised PVR ectodomain to CD96-expressing cells, normalized fluorescence intensity
T1 construct: expressed on cells; also called CD96 expressed on cells
T1 sequence (cell-surface-expressed binding partner, looked up): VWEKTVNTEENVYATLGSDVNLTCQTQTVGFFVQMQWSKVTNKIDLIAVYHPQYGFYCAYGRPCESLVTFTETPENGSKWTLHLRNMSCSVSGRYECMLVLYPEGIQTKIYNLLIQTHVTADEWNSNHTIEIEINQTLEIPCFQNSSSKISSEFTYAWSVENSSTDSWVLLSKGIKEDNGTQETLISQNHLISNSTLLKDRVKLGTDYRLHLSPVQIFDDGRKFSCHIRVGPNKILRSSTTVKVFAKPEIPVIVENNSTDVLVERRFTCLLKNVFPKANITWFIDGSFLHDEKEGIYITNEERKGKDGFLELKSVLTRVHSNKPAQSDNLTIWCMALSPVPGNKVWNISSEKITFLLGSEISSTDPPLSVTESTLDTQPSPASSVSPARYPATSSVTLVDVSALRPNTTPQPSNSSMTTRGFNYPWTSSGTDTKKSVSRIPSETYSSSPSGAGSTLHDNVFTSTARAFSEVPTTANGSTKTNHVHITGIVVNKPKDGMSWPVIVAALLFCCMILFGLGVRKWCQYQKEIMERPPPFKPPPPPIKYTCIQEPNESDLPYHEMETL

PVR [1] = target: B1; experiment: cell surface binding of monomeric or streptavidin-tetramerised PVR ectodomain to CD226-expressing cells, normalized fluorescence intensity
PVR [2] = target: B1; experiment: cell surface binding of monomeric or streptavidin-tetramerised PVR ectodomain to TIGIT-expressing cells, normalized fluorescence intensity
PTPRS expressed on cells = target: T2, PTPRS expressed on cells (human, UniProt Q13332 30-1948); experiment: cell surface interaction assay: streptavidin-tetramerized biotinylated ECD on transfected cells, immunofluorescence
T2 construct: whole, on cells; also called receptor-type tyrosine-protein phosphatase S

PTPRD expressed on cells = target: T3, PTPRD expressed on cells (human, UniProt P23468 21-1912); experiment: as above
T3 construct: whole, on cells; also called receptor-type tyrosine-protein phosphatase delta

[3] = target: T4, LRRC4B expressed on cells (human, UniProt Q9NT99 36-713); experiment: as above
T4 construct: whole, on cells; C-terminally tagged in the co-IP; also called NGL-3; LRRC4B-FLAG
T4 sequence (looked up): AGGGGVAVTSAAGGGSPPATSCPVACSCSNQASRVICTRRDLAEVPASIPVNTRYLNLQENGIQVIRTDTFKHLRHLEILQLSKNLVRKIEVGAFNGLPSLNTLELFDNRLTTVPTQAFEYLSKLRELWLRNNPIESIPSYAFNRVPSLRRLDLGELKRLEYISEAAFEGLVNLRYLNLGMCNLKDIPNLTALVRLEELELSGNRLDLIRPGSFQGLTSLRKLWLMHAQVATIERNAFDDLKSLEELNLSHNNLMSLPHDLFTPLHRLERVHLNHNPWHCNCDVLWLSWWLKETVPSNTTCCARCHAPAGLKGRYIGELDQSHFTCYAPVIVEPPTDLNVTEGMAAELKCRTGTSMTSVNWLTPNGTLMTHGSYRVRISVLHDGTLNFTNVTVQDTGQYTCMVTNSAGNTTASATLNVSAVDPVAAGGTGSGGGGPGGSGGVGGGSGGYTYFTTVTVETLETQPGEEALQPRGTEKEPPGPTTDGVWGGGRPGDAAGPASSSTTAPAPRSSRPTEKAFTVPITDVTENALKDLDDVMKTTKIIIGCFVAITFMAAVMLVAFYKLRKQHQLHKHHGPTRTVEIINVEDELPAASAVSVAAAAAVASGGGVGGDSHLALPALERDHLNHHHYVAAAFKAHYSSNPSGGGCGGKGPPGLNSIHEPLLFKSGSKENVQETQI

UNC5A = target: T5, UNC5A (human, UniProt Q6ZN44); experiment: cell surface interaction assay: query ECD tetramerised with fluorescent streptavidin on transfected cells, immunofluorescence
T5 construct: expressed on cells; also called UNC5A expressed on cells
T5 sequence (cell-surface-expressed binding partner, looked up): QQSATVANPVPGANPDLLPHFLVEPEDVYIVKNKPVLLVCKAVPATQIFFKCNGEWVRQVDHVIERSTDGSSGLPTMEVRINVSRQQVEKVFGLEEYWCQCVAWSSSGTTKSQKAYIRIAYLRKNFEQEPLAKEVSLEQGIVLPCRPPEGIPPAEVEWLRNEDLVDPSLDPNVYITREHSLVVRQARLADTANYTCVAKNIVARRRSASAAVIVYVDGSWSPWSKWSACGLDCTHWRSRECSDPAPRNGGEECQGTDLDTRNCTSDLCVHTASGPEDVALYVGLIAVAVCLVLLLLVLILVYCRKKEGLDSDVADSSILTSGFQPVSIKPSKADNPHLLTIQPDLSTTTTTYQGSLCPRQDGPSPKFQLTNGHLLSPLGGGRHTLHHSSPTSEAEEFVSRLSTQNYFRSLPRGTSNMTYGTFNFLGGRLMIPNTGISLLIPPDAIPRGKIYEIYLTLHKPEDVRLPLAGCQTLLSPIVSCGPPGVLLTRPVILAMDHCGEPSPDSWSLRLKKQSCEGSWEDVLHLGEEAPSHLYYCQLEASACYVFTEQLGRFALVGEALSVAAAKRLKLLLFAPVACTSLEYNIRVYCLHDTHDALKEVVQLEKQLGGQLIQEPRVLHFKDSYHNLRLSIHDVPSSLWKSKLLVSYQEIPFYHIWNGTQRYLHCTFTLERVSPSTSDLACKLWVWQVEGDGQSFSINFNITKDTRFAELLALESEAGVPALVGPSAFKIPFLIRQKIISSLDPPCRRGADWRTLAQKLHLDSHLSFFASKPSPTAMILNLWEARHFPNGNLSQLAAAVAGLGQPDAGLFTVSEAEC

[4] = target: T6, LILRB1 expressed on cells (human, UniProt Q8NHL6 24-650); experiment: cell surface interaction assay: ECD tetramer on transfected cells (FIG. 5N)
T6 construct: whole, on cells; C-terminally tagged in the co-IP; also called LILRB1-FLAG
T6 sequence (Q8NHL6 24-650): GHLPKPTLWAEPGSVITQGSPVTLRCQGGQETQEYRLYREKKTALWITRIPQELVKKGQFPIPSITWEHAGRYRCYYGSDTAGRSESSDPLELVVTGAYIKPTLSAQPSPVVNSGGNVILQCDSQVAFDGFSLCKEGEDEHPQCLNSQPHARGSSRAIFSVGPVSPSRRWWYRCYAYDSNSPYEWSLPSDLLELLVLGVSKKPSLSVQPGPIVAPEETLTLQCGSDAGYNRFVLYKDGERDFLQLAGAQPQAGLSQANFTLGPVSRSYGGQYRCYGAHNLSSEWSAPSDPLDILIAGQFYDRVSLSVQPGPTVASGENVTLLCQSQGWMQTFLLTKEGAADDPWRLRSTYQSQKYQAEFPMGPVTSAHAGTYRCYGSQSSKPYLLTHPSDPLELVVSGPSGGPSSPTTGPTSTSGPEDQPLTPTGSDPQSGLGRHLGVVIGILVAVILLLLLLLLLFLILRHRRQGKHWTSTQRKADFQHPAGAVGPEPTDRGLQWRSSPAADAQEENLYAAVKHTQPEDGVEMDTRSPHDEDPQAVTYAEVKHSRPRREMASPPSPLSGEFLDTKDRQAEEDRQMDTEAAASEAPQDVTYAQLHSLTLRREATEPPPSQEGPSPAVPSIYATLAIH

T2 sequence (Q13332 30-1948): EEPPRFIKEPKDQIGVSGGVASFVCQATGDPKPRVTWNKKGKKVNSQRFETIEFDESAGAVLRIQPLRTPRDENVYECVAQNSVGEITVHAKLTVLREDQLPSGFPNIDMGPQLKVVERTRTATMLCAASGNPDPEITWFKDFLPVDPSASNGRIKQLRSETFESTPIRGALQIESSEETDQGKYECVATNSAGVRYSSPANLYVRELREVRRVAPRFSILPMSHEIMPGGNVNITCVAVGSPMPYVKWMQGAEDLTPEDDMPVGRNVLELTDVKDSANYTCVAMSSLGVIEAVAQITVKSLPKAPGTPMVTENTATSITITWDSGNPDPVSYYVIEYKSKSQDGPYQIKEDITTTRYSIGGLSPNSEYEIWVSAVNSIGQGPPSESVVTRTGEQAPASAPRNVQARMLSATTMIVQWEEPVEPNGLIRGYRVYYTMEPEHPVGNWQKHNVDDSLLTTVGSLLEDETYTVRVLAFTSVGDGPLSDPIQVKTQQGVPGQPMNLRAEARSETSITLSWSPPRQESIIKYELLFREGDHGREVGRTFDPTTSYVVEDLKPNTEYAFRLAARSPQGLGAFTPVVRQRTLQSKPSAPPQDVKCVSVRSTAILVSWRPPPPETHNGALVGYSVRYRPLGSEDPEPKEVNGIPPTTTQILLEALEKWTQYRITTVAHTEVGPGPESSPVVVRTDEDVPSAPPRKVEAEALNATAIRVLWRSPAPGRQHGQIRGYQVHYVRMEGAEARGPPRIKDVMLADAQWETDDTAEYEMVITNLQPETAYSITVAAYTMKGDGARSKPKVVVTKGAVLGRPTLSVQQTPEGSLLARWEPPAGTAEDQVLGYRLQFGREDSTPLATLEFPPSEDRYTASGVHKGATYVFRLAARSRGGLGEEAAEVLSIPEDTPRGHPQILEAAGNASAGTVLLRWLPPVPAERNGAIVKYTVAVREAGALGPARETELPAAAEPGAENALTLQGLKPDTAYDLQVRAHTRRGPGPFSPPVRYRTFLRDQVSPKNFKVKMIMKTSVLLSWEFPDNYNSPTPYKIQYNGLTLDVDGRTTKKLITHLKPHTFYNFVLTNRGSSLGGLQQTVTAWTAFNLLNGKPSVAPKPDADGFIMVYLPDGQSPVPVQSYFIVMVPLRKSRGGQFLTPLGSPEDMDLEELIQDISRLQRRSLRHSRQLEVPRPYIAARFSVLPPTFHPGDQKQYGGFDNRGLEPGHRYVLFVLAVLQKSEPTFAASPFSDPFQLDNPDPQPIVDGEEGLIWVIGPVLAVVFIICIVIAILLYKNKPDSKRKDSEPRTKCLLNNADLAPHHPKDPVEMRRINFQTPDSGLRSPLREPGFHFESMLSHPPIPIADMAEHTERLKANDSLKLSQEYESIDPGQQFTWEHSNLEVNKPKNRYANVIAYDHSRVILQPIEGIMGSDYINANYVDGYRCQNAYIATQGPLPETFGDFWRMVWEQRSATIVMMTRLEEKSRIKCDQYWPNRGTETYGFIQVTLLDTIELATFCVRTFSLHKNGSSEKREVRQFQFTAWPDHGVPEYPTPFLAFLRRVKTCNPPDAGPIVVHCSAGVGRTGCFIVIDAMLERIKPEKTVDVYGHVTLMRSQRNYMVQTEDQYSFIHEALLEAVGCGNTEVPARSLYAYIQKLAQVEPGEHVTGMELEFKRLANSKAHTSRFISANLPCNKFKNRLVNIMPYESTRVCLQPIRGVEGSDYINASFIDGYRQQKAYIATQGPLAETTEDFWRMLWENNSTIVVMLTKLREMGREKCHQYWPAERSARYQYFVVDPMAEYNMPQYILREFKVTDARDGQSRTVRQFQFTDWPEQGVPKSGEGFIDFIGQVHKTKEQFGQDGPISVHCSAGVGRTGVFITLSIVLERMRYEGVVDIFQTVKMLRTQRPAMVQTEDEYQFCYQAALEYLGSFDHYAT
T3 sequence (P23468 21-1912): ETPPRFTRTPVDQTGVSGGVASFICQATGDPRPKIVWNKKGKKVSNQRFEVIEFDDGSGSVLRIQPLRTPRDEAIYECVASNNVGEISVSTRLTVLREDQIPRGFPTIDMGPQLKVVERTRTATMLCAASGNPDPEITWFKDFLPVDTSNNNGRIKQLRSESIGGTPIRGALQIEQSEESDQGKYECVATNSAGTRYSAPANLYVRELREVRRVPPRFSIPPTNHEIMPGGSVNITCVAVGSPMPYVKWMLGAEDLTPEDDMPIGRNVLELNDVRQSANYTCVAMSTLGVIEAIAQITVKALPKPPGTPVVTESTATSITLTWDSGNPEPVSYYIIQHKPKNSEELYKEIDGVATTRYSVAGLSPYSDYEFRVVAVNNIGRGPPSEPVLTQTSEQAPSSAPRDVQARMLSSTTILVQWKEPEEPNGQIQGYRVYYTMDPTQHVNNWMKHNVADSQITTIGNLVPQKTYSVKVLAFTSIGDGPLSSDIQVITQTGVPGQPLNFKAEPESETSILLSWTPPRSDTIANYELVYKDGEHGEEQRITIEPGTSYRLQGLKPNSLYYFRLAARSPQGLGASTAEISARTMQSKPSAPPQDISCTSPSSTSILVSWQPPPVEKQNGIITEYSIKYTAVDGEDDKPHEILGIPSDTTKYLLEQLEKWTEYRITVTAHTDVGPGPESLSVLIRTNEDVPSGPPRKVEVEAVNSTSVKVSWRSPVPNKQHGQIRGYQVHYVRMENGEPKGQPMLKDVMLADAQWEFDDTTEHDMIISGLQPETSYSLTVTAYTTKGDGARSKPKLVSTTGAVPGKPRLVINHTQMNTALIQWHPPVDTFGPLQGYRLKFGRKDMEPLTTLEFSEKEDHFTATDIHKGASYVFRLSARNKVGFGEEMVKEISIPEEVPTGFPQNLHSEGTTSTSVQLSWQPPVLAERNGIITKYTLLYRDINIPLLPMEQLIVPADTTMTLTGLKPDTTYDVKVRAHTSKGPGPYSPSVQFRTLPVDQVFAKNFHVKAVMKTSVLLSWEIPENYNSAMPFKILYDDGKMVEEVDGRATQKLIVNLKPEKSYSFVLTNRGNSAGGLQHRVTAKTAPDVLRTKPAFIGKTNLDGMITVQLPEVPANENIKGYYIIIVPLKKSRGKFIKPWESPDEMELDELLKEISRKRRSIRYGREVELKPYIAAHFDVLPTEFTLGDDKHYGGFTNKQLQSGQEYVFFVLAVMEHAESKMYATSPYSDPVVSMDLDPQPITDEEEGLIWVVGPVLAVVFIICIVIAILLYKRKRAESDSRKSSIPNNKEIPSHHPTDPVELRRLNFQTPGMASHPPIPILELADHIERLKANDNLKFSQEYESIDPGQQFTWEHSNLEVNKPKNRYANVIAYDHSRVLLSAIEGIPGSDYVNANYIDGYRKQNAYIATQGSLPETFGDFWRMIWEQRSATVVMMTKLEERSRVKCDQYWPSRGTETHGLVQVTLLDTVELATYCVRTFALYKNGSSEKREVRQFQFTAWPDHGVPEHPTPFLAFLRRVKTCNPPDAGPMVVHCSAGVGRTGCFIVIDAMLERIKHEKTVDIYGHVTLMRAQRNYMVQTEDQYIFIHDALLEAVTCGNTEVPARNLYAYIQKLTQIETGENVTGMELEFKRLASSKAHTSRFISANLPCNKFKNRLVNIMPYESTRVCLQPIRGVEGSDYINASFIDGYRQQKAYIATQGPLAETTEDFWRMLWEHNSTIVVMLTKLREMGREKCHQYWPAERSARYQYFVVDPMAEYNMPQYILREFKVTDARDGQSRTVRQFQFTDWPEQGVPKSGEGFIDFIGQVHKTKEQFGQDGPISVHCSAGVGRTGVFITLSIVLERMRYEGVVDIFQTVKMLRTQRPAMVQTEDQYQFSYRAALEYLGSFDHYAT

B1
binding result (CD96): binds

B2
binding result (PVR [1]): binds

B3
binding result (PVR [2]): binds

B4
binding result (PTPRS expressed on cells): binds
binding result (PTPRD expressed on cells): binds

B5
binding result [3]: binds

B6
binding result [3]: binds

B7
binding result (UNC5A): binds

B8
binding result [4]: binds

B9
binding result [4]: binds
